US6962795 (CORVAS INTERNATIONAL, dated 2005)

How the values were obtained:
[1] = molecular target: T1, Mac-1 integrin complex (CD11b/CD18) (human, UniProt P11215 17-1152; P05107 23-769); test: ELISA on LM2-captured Mac-1, 3D2-HRP detection, Pichia supernatant
[2] = molecular target: T1, Mac-1 integrin complex (CD11b/CD18); test: competition ELISA with biotinylated mature NIF-1FL on LM2-captured Mac-1 (FIG. 18)
[3] = molecular target: T1, Mac-1 integrin complex (CD11b/CD18); test: soluble NIF-1FL pre-incubated in varying amounts on LM2/Mac-1-coated wells before the phages
[4] = molecular target: T1, Mac-1 integrin complex (CD11b/CD18); test: panning of a 1:1 mix of pAN-NIF-1FL and fd-tet phage on a Mac-1-coated well, acid elution, colony counts
[5] = molecular target: T1, Mac-1 integrin complex (CD11b/CD18); test: competition with biotinylated NIF-1FL on LM2-captured Mac-1, Pichia supernatant

B1: recombinant AcaNIF6 produced in Pichia pastoris (ligand)
chain: NEHKPMCQQNETEMPGFNDLMRLQFLAMHNGYRSKLALGHISITDESESDYDYDYGFLPDFAPSASKMRYLEYDCEAERSAYTSASDCSDSSSPPEGYDENKYIFENSNNISEAALKAMISWAKEAFNLNKTEKGVLYQPNHDISNFANLAWDTREKFGCAVVNCPLGEIDADIYDEETYATTIHVVCHYPKINKTEGEPIYKVGTPCDDCSEYTKKADNTTSADPVCIPDDGVCFIGSKADYDSKEFYRFREL
notes: also called mature AcaNIF6
B1: binds [1].

B2: recombinant AcaNIF4 produced in Pichia pastoris (ligand)
chain: NEHKPMCERNETEMPGFNDSMRLQFLAMHNGYRSLLALGHVGISKQPIDDDYYDDDYYYFYSSYAPRASKMRYLEYDCEAEKSAYVSASNCSNISSPPEGYDENKYIFENSNNISEAALKAMISWAKEAFNLNKTEEGEGVLYRSNHDISNFANLAWDTREKFGCAVVNCPLGEIDTTSNRDGETYATAIHVVCHYPKILEKEEKQIYEVGKPCDRCSEYSKNANNITSPNWVCNDDDGVCFIGSKDDYISKEFYRFREL
notes: also called mature AcaNIF4
B2: binds [2].

B3: recombinant mature NIF-1FL produced in Pichia pastoris (ligand)
chain: NEHNLRCPQNGTEMPGFNDSIRLQFLAMHNGYRSKLALGHISITEESESDDDDDFGFLPDFAPRASKMRYLEYDCEAEKSAYMSARNCSDSSSPPEGYDENKYIFENSNNISEAALKAMISWAKEAFNLNKTKEGEGVLYRSNHDISNFANLAWDAREKFGCAVVNCPLGEIDDETNHDGETYATTIHVVCHYPKINKTEGQPIYKVGTPCDDCSEYTKKADNTTSADPVCIPDDGVCFIGSKADYDSKEFYRFREL
modifications: N-glycosylated (Pichia); biotinylated on oxidised carbohydrate where used as labelled tracer
notes: also called rNIF; recombinant NIF
B3: binds [3].

B4: phages displaying mature NIF-1FL (NIF-1FL-pgIII fusion from pAN-NIF-1FL) (other)
chain: NEHNLRCPQNGTEMPGFNDSIRLQFLAMHNGYRSKLALGHISITEESESDDDDDFGFLPDFAPRASKMRYLEYDCEAEKSAYMSARNCSDSSSPPEGYDENKYIFENSNNISEAALKAMISWAKEAFNLNKTKEGEGVLYRSNHDISNFANLAWDAREKFGCAVVNCPLGEIDDETNHDGETYATTIHVVCHYPKINKTEGQPIYKVGTPCDDCSEYTKKADNTTSADPVCIPDDGVCFIGSKADYDSKEFYRFREL
notes: An extra Ala codon stands between the pelB signal and NIF-1FL; also called NIF-phage; NIF-displaying phages; not shown: linker with a NotI site and a suppressed TAG amber codon between NIF-1FL and pgIII; product of filamentous phage M13 gene III (pgIII), fused at the C-terminus of NIF-1FL
For B4, the “fold enrichment over non-displaying fd-tet phage” value [4] was 30 fold.

B5: recombinant NIF-1FL/Δh, Gl1-7 produced in Pichia pastoris (ligand)
chain: NEHNLRCPQQGTEMPGFQDSIRLQFLAMHNGYRSKLALGHISITEESESDDDDDFGFLPDFAPRASKMRYLEYDCEAEKSAYMSARQCSDSSSPPEGYDENKYIFENSNQISEAALKAMISWAKEAFNLQKTKEGEGVLYRSNHDISNFANLAWDAREKFGCAVVNCPLGEIDDETNHDGETYATTIHVVCHYPKIQKTEGQPIYKVGTPCDDCSEYTKKADQTTSADPVCIPDDGVCFIGSKADYDSKEFYRFREL
notes: Mature NIF-1FL with Asn to Gln at positions 10, 18, 87, 110, 130, 197 and 223; also called hNIF1/Δh, Gl1-7; AcaNIF1/Δh, Gl1-7
B5: binds [1].

B6: recombinant NIF-1FL/ΔGl1-5 produced in Pichia pastoris (ligand)
chain: NEHNLRCPQQGTEMPGFQDSIRLQFLAMHNGYRSKLALGHISITEESESDDDDDFGFLPDFAPRASKMRYLEYDCEAEKSAYMSARQCSDSSSPPEGYDENKYIFENSNQISEAALKAMISWAKEAFNLQKTKEGEGVLYRSNHDISNFANLAWDAREKFGCAVVNCPLGEIDDETNHDGETYATTIHVVCHYPKINKTEGQPIYKVGTPCDDCSEYTKKADNTTSADPVCIPDDGVCFIGSKADYDSKEFYRFREL
notes: Mature NIF-1FL with Asn to Gln at positions 10, 18, 87, 110 and 130; also called hNIF1/ΔGl1-5; AcaNIF1/ΔGl1-5
B6: binds [1].

B7: recombinant AcaNIF9 produced in Pichia pastoris (ligand)
chain: NEHDPTCPQNEVEMEKGFDDAMRLKFLALHNGYRSKLALGHVSITEESEDYDLYDLLYAPTASKMRYLEYDCEAEKSAYESAKKCQTTAFSSTKYDENLQVIEDPRDINHAALKAIISWATEAFNLNKTGEGVVYRSILNISNFANLAWDTREKVGCAVVKCPSGNTHVVCHYPKIVKKEGKPIYSIGKPCRGCNDYASKFFCHADEGVCIIASRDLDIYGRKKYFYPFREL
notes: Only partially purified when tested
B7: binds [5].

B8: AceNIF3 produced in Pichia pastoris (pYAM7SP-AceNIF3) (ligand)
chain: NEHEPTCKQNNGSMTNELRRRFLRLHNGYRSILALGHVNISEESNETFLYAHRASRMRILDYDCDAEGSAYESAIKQCSSNKSSSAEYDENVYVIDNTYEDEVDPALKAISSWTSQAFNLTHAEEGIPYQWNDSVSDFANVAWDAREKLGCAVVTCDQGNTTHVVCHYGPKAANKTEPIYKVGVPCSNCTEYTRGDEEKVFCHADEGVCVINLRDLNSHLNTSLRYPPI
notes: Carries a hybrid N-terminus N-E-H-E-P-T-C-K-Q (first three residues from AcaNIF9); Tested as crude Pichia cell supernatant
B8: binds [5].
